Experimental data published in publication PMC9294600.

Each substance was assayed against HA-tagged p62 (SQSTM1) (UniProt Q13501) (assay: coimmunoprecipitation and immunoblot, quantified). Conditions: 293T cells; 0.2 μM Baf A1 for 6 h; parent: est. 1.0; read off a plot.

Q: “Flag-tagged dengue virus (DENV) capsid protein K17R” was tested. Which ratio to parent did it give?
A: 1.1

Q: How did the ratio to parent turn out when “Flag-tagged dengue virus (DENV) capsid protein K6R” was run?
A: 0.81

Q: With “Flag-tagged dengue virus (DENV) capsid protein K76R” as the substance, how does the ratio to parent read?
A: 0.22
